B1: IL6R-BP188/IL6R-L (antibody, human IgG1)
heavy: QVQLQESGPGLVKPSETLSLTCAVSGHSISHDHAWSWVRQPPGEGLEWIGFISYSGITNYNPSLQGRVTISRDNSKNTLYLQMNSLRAEDTAVYYCARSLARTTAMDYWGEGTLVTVSSASTKGPSVFPLAPSSKSTSGGTAALGCLVKDYFPEPVTVSWNSGALTSGVHTFPAVLQSSGLYSLSSVVTVPSSSLGTQTYICNVNHKPSNTKVDKKVEPKSCDKTHTCPPCPAPDLLGDDSVFLFPPKPKDTLMISRTPEVTCVVVDVSDEDGEVKFNWYVDGVEVHNAKTKPREEQYNSTYRVVSVLTVLHQDWLNGKEYKCKVSNKALPKPIEKTISKAKGQPREPQVYTLPPSRDELTKNQVSLTCLVKGFYPSDIAVEWESNGQPENNYKTTPPVLDSDGSFFLYSKLTVDKSRWQQGNVFSCSVMHEALHNHYTQESLSLSP
light: DIQMTQSPSSLSASVGDRVTITCRASQDISSYLNWYQQKPGKAPKLLIYYTSRLHSGVPSRFSGSGSGTDFTFTISSLQPEDIATYYCQQGNTLPYTFGQGTKVEIK
notes: The common L chain is IL6R-L; copies: 2 + 2
B2: IL6R-BP193/IL6R-L (antibody, human IgG1)
heavy: QVQLQESGPGLVKPSETLSLTCAVSGHSISHDHAWSWVRQPPGEGLEWIGFISYSGITNYNPSLQGRVTISRDNSKNTLYLQMNSLRAEDTAVYYCARSLARTTAMDYWGEGTLVTVSSASTKGPSVFPLAPSSKSTSGGTAALGCLVKDYFPEPVTVSWNSGALTSGVHTFPAVLQSSGLYSLSSVVTVPSSSLGTQTYICNVNHKPSNTKVDKKVEPKSCDKTHTCPPCPAPDLLGGDSVFLFPPKPKDTLMISRTPEVTCVVVDVSDEDGEVKFNWYVDGVEVHNAKTKPREEQYNSTYRVVSVLTVLHQDWLNGKEYKCKVSNKALPKPIEKTISKAKGQPREPQVYTLPPSRDELTKNQVSLTCLVKGFYPSDIAVEWESNGQPENNYKTTPPVLDSDGSFFLYSKLTVDKSRWQQGNVFSCSVMHEALHNHYTQESLSLSP
light: DIQMTQSPSSLSASVGDRVTITCRASQDISSYLNWYQQKPGKAPKLLIYYTSRLHSGVPSRFSGSGSGTDFTFTISSLQPEDIATYYCQQGNTLPYTFGQGTKVEIK
notes: as for B1
B3: IL6R-BP200/IL6R-L (antibody)
heavy: QVQLQESGPGLVKPSETLSLTCAVSGHSISHDHAWSWVRQPPGEGLEWIGFISYSGITNYNPSLQGRVTISRDNSKNTLYLQMNSLRAEDTAVYYCARSLARTTAMDYWGEGTLVTVSSASTKGPSVFPLAPSSKSTSGGTAALGCLVKDYFPEPVTVSWNSGALTSGVHTFPAVLQSSGLYSLSSVVTVPSSSLGTQTYICNVNHKPSNTKVDKKVEPKSCDKTHTCPPCPAPDYLGDDSVFLFPPKPKDTLMISRTPEVTCVVVDVSHEDGEVKFNWYVDGVEVHNAKTKPREEQYNSTYRVVSVLTVLHQDWLNGKEYKCKVSNDALPRPIEKTISKAKGQPREPQVYTLPPSRDELTKNQVSLTCLVKGFYPSDIAVEWESNGQPENNYKTTPPVLDSDGSFFLYSKLTVDKSRWQQGNVFSCSVMHEALHNHYTQESLSLSP
light: DIQMTQSPSSLSASVGDRVTITCRASQDISSYLNWYQQKPGKAPKLLIYYTSRLHSGVPSRFSGSGSGTDFTFTISSLQPEDIATYYCQQGNTLPYTFGQGTKVEIK
notes: copies: 2 + 2
B4: IL6R-BP201/IL6R-L (antibody, human IgG1)
heavy: QVQLQESGPGLVKPSETLSLTCAVSGHSISHDHAWSWVRQPPGEGLEWIGFISYSGITNYNPSLQGRVTISRDNSKNTLYLQMNSLRAEDTAVYYCARSLARTTAMDYWGEGTLVTVSSASTKGPSVFPLAPSSKSTSGGTAALGCLVKDYFPEPVTVSWNSGALTSGVHTFPAVLQSSGLYSLSSVVTVPSSSLGTQTYICNVNHKPSNTKVDKKVEPKSCDKTHTCPPCPAPDLLGDDSVFLFPPKPKDTLMISRTPEVTCVVVDVSHEDGEVKFNWYVDGVEVHNAKTKPREEQYNSTYRVVSVLTVLHQDWLNGKEYKCKVSNKALPRPIEKTISKAKGQPREPQVYTLPPSRDELTKNQVSLTCLVKGFYPSDIAVEWESNGQPENNYKTTPPVLDSDGSFFLYSKLTVDKSRWQQGNVFSCSVMHEALHNHYTQESLSLSP
light: DIQMTQSPSSLSASVGDRVTITCRASQDISSYLNWYQQKPGKAPKLLIYYTSRLHSGVPSRFSGSGSGTDFTFTISSLQPEDIATYYCQQGNTLPYTFGQGTKVEIK
notes: as for B1

What was measured:
Assay in all cases: SPR (Biacore); binding amount divided by that of control IL6R-BF648/IL6R-L, x100
human FcγRIa = biological target: T1, human FcγRIa (human, UniProt P12314 16-292, limits assumed)
T1 construct: also called FcgRIa; CD64
T1 sequence (P12314 16-292 limits assumed): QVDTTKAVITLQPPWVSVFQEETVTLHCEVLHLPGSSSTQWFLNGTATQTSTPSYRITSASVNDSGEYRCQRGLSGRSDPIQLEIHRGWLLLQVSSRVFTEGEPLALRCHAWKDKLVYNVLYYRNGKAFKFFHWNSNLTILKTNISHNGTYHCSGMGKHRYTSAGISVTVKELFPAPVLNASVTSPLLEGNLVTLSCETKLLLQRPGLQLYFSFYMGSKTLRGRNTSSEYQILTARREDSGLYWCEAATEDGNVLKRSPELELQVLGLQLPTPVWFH
Description: (§1) According to the following method, relative binding activities were calculated for the results of analyzing interactions with the respective FcγRs.

human FcγRIIb = biological target: T2, human FcγRIIb (human, UniProt P31994 43-217, limits assumed)
T2 construct: also called FcgRIIb; FcγIIB
T2 sequence: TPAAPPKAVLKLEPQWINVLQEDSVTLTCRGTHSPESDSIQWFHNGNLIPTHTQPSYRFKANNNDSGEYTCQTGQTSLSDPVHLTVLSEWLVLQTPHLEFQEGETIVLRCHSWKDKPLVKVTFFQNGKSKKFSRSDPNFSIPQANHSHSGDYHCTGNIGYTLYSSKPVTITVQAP
Description: as §1

human FcγRIIa type H = biological target: T3, human FcγRIIa type H (human, UniProt P12318 36-217)
T3 construct: also called FcgRIIaH; FcγRIIa(H)
T3 sequence: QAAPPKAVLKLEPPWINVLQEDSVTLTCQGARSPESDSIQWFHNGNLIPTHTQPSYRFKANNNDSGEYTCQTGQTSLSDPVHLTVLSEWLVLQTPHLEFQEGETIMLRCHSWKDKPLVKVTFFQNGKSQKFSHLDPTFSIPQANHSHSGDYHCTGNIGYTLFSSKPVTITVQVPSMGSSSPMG
Description: as §1

Binder	relative binding activity (human FcγRIa)	relative binding activity (human FcγRIIb)	relative binding activity (human FcγRIIa type H)
B1	74 % of IL6R-BF648/IL6R-L	179 % of IL6R-BF648/IL6R-L	–
B2	113 % of IL6R-BF648/IL6R-L	173 % of IL6R-BF648/IL6R-L	154 % of IL6R-BF648/IL6R-L
B3	60 % of IL6R-BF648/IL6R-L	188 % of IL6R-BF648/IL6R-L	517 % of IL6R-BF648/IL6R-L
B4	57 % of IL6R-BF648/IL6R-L	186 % of IL6R-BF648/IL6R-L	359 % of IL6R-BF648/IL6R-L

Reference: patent publication US20140105889A1 (published 2014)
